Key:
[1] = target: T1, myc-tagged IQGAP1 WW domain expressed from lentivirus (pLEX-mycWW)
T1 chain: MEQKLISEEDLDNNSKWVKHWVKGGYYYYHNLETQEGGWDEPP

[2] = target: myc-tagged mutant IQGAP1 WW domain expressed from lentivirus (pLEX-mycYY)

B1: ERK1 (extracellular signal-regulated kinase 1), endogenous (protein)
chain: AAAAAQGGGGGEPRRTEGVGPGVPGEVEMVKGQPFDVGPRYTQLQYIGEGAYGMVSSAYDHVRKTRVAIKKISPFEHQTYCQRTLREIQILLRFRHENVIGIRDILRASTLEAMRDVYIVQDLMETDLYKLLKSQQLSNDHICYFLYQILRGLKYIHSANVLHRDLKPSNLLINTTCDLKICDFGLARIADPEHDHTGFLTEYVATRWYRAPEIMLNSKGYTKSIDIWSVGCILAEMLSNRPIFPGKHYLDQLNHILGILGSPSQEDLNCIINMKARNYLQSLPSKTKVAWAKLFPKSDSKALDLLDRMLTFNPNKRITVEEALAHPYLEQYYDPTDEPVAEEPFTFAMELDDLPKERLKELIFQETARFQPGVLEAP
- pELK1 levels in IP-kinase assay (pERK immunoprecipitate, ELK-1 substrate) [1]: revealed diminished downstream pELK1 levels as compared to control treated cells
- phosphorylated ERK levels (tissue stain and immunoblot) [1]: WW domain expressing tissue also showed diminished phosphorylated ERK without an effect on total ERK levels
- phosphorylated ERK levels (immunoblot) [2]: Primary normal human keratinocytes infected with this WW domain mutant had normal levels of phosphorylated ERK

— US20140162960
